± gives the uncertainty stated by the source.

The nature of the data set: amyloid nucleation score (Sup35N fusion, yeast selection) (log enrichment); library NNK1; higher = more nucleation; inactive = no reads after selection. The gist of the method: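 Psi-negative yeast expressed Sup35N fused to peptides of 20 random codons. They were induced 24 hours with 100 μM copper sulfate, grown 7 days at 30°C without adenine and uracil, and their plasmid inserts from input and output were Illumina-sequenced. The nucleation score is the DiMSum log enrichment of output over input reads, centred on the mode score of non-aggregating sequences. Sequences with under 100 input reads were excluded.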
In turn, YVVLASVMLITYVRA yielded an amyloid nucleation score of 0.786 ± 0.38.

Regarding AGKCIVQYKGLKNVR, the amyloid nucleation score worked out at 0.91 ± 0.75. With DFSLSSPRFLFGDGCRNCNA the figure was -0.028 ± 0.36; with ERRDVRIYKSCGLGHVFYEG, 4.91 ± 0.056. In the case of LNRHYFCVGIPYGPYSQRYL it was 0.51 ± 0.75; in that of NVQVKWGQTRVTCWDYGGEH, 0.467 ± 0.34; in that of KFLLNRVLTDMDLYT, 0.135 ± 0.37. LLWEPRKFFESNWLSIQSAK returned an amyloid nucleation score of -0.668 ± 1.7. With WLLLNDSFSTRHLFMPRSKW the figure was -0.381 ± 0.75. In the case of NSRFKNFMSNTHVH it was “inactive”. With VMSATVSSFWTEVCRMRTVT the figure was 1.14 ± 0.66; with RKWRVCDKND, -0.491 ± 0.86; with NTCTMCGWICAFLRPVFCVV, 0.745 ± 1.2. Consider PRVSRRPWLKGFNNVSNQQI, for which the amyloid nucleation score turned out to be 0.193 ± 1.5. In the case of IVRNGQATWSWILRGPSWVG it was -1.32 ± 0.48. With ISGLNV the figure was -0.372 ± 0.51; with HTFSRRTGAGGSAKLT, 0.972 ± 0.6. With VFLIAWGLFSRMC the figure was 4.54 ± 0.11; with VLGRRKMIQVNFNFKYLSWD, 1.62 ± 0.45; with CRLKH, 0.123 ± 0.3.

Consider ILNGFTRYLR, for which the amyloid nucleation score was -0.12 ± 0.36.

PELYSVDHFNGYAPNYCRCR showed an amyloid nucleation score of -0.534 ± 0.43.

RLVIRSGTNAGMVGRSWGGC displayed an amyloid nucleation score of -0.151 ± 0.3. In the case of YFSKTISFLFSFNSCYEFIK it was 1.19 ± 0.44; in that of SCWNSCNKMSF, 2.87 ± 0.24. In the case of LSNRSKNDGKSRLIPMDDVH it was “inactive”; in that of WVWDGDIGGWNVKPFHRVRG, 0.121 ± 0.58; in that of KSMHEVWWLLQSEGERDL, 0.712 ± 0.49. In the case of VRSFVHTWLDTTWA it was -0.025 ± 0.36; in that of VVLKNHRHSVLSWWLTS, -0.622 ± 0.56. In turn, LAQSGIDIYLRKGMDARKMR returned an amyloid nucleation score of -0.516 ± 0.32. Consider MGTRILSRTFVVYTTPGYCW, for which the amyloid nucleation score came to 0.093 ± 0.27. In the case of YWNMTCNTV it was -0.139 ± 0.52; in that of VSWWNCLL, -1.28 ± 2.4; in that of VMYVPPMACSLS, -0.315 ± 0.77. The substance FLIIIRPISRRTCRVCFKQT came in with an amyloid nucleation score of -0.246 ± 0.44. With FNSRGSVSNL the figure was 0.821 ± 1.1; with QLLPISGKVWAVISSGLG, -0.029 ± 0.32. With LSKGRATVYF the figure was 2.06 ± 0.23. With WGNTRYGTAASVCVTEVKGS the figure was 0.048 ± 0.4; with VKSGALKYRKIGAYGTGSRL, 0.728 ± 1.2; with SPFDKIVAHGSRLML, -0.274 ± 0.64.

The substance LRWMESLRLNARSFKDTLLC showed an amyloid nucleation score of -0.33 ± 1.7. In the case of LFSCWQSGRVNKYYVDGSMG it was -0.206 ± 0.97; in that of VMDYYTMFFEMPRGRALIAN, “inactive”; in that of WQTSSNGLSLKATCLTYKSF, 0.016 ± 1.7. In the case of WRIMNHNVLLMLVRLGSILL it was 1.18 ± 0.28.

Take RLLRFGENFDCWKYLNVALE: the amyloid nucleation score is 0.004 ± 0.42. PCTFWAEVRINRWSYYARQR returned an amyloid nucleation score of -0.856 ± 2.4. In the case of IFVVMQTIFMWLDSWADQSL it was 0.391 ± 0.35; in that of SMLRNTNLNAIPKFTVSFVL, -0.021 ± 0.69; in that of SVESYTKAISIYTIGERIVL, -0.004 ± 1.6. In the case of TEDPYSGPILKEPVDLCWLE it was 0.494 ± 0.74.

FNNPKCHSWLDRMVWLMWLA came in with an amyloid nucleation score of 0.343 ± 0.61. In the case of YWCAISSVSLKFLVMSYLSG it was -0.362 ± 1.1; in that of MWCLGLDIFRIRVYRCAGGG, -0.348 ± 0.28; in that of RGDLCGSRIFLWFALPVN, -0.726 ± 0.62.

On to MCVLYMGGSFRF, for which the amyloid nucleation score turned out to be 1.58 ± 0.44.

With RGILLSPSLLVYRLTT, the amyloid nucleation score was -0.096 ± 1.2. In the case of HMLIFYSGLCKPSFVYYLLY it was 1.04 ± 0.58; in that of RYPTGAKKLQMLNDVLMLYR, -0.479 ± 0.3. In turn, YNLYRH displayed an amyloid nucleation score of 0.406 ± 0.51.

In turn, RQVPGIKCKSFTLYFADITL returned an amyloid nucleation score of 3.85 ± 0.1.

DWSSRVFPGSLGTKAGSHA gave an amyloid nucleation score of -1.58 ± 1.4.

GIAVHGMLDRMVSRRGLRAW returned an amyloid nucleation score of 0.387 ± 0.97. SWNVVFKVPLGLRVLYGYLC displayed an amyloid nucleation score of -0.197 ± 0.28.

Regarding SYRSYGSSSCSVWRTAAGDQ, the amyloid nucleation score is 2.9 ± 0.084. Substance QLNFYIR came in with an amyloid nucleation score of 8.212 ± 0.061.

With RIKHERLIVFVMNLDINQ, the amyloid nucleation score was determined as 4.3 ± 0.096. With IQTCCHIQVELV the figure was 3.79 ± 0.088; with QVNVN, 0.19 ± 0.5. EKLKMVVGWVVPLSAHMQEY returned an amyloid nucleation score of 0.609 ± 0.84. In turn, SMVRYTMDSKVKKRSSVVVG gave an amyloid nucleation score of 3.56 ± 0.18.

VSHDGGLLRVWFMLALREGN: the amyloid nucleation score is 0.003 ± 0.49. In the case of NFFVDDSDRGQYKFDPFCCG it was “inactive”. In the case of FLRELMRCIGASSTFLGVEK it was -0.204 ± 0.29; in that of LRRLEGLMSLGSFKFSPYGP, 0.227 ± 1.2.

In turn, IWEFSWLYMLKVMRSGFSYN came in with an amyloid nucleation score of -0.282 ± 0.44. For the substance IGACLRQSLVISYDVIFMLL, the amyloid nucleation score result is “inactive”. In the case of KAFRMLGGFNSYRNFNIILK it was 3.96 ± 0.079; in that of YRSSVL, -0.514 ± 0.29.

On to VGVRRDTCSPRQVLGHTS, for which the amyloid nucleation score is 0.301 ± 0.52. In the case of VNWFTR it was 0.582 ± 0.56; in that of YSFALSVG, 0.874 ± 0.43. For the substance SGVVTCVVFL, the amyloid nucleation score is 5.38 ± 0.066. In the case of NTTATLMGHTQPIYSIYSVF it was 1.11 ± 0.94; in that of MWRKHR, -0.543 ± 0.65; in that of DVGCLCNNMHMILILLNYRV, 0.446 ± 0.44. Turning to GYFLPGFEMLCYNRRIWYIM, the amyloid nucleation score was -1.03 ± 0.61. In the case of VIRCRKFRTVWILFLAISLV it was “inactive”. In the case of HESYVVRIYIFEDRRYLCEV it was 0.037 ± 0.6; in that of RTINYTAMWCYS, 0.721 ± 0.41; in that of DWPMELLASYMTPMLVTRV, “inactive”. With CSHRM the figure was 0.707 ± 0.51; with YSRLRVCTNSAMLELGFS, 1.03 ± 0.26. For the substance PGRTLIVFFCVVVCQCEDNR, the amyloid nucleation score amounted to 1.44 ± 0.5. In the case of FWIDLGMTLGTCRSFLSLRS it was 0.217 ± 0.6. YSDPYAKWNDQR had an amyloid nucleation score of 0.784 ± 0.76.

LSIILRNVMCNIFSSNLITH: the amyloid nucleation score came to 0.973 ± 0.16. With MIWPDGQRLMRPTLRMYKTS the figure was 0.279 ± 0.36; with FLHFMVY, 0.027 ± 0.64. Turning to ISVVLWYDRALARCPSPDAP, the amyloid nucleation score was found to be 0.764 ± 0.49.

AARRLNELSSELKWMCSATD yielded an amyloid nucleation score of -0.077 ± 0.4.

The record behind these values is the supplement of paper PMC12042874.
